Assay results published in patent US20180362643A1 (Amgen, published 2018).
Blank lines part the entries; values can stand above or below the binder they belong to. Ends that are not written are not given here.

Tests used:
[1] = target: T1, carboxy terminal PACAP38 peptide (amino acids 28-38) (human, ends and bridges not checked); experiment: ELISA screen of B-cell culture supernatant
T1 construct: also called C-terminal Peptide; C-terminal PACAP peptide
T1 peptide: GKRYKQRVKNK

[2] = target: T2, full-length human PACAP38 (human, not fully specified); experiment: ELISA screen of B-cell culture supernatant; full-length PACAP38 at 10 ng/mL
T2 construct: Corresponds to amino acids 132-169 of the precursor (NP 001108.2); The description says natural PACAP38 is C-terminally amidated; also called Full-length PACAP38
T2 peptide: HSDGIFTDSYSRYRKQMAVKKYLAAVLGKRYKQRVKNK
Source text: (§1) Rabbits were immunized with human PACAP38 peptide ([…]; SEQ ID NO: 1). Monoclonal antibodies were generated from the immunized rabbits using the Selected Lymphocyte Antibody Method (SLAM) as described in Babcook et al., Proc. Natl. Acad. Sci. USA, Vol. 93: 7843-7848, 1996. Briefly, B cells were harvested from spleens from the immunized rabbits and expanded in culture. The supernatant from the expanded B-cell cultures was initially screened for binding to an amino terminal PACAP38 peptide ([…]; SEQ ID NO: 5) and a carboxy terminal PACAP38 peptide ([…]; SEQ ID NO: 4) using an ELISA assay. From the initial screen, 2,935 N-terminal and/or C-terminal binders were identified. The affinity of these antibodies for full-length human PACAP38 (SEQ ID NO: 1) was assessed by ELISA assay.

[3] = target: T3, PACAP38 peptide fragment 14-38 (human, not fully specified); experiment: SPR (Biacore 3000), solution competition: antibody pre-incubated 2 h with the peptide at 1:200 molar ratio (Ab:peptide), then injected over immobilised full-length PACAP38; readout % inhibition of antibody binding (filing counts >50 % as reactive)
T3 construct: also called peptide No. 7
T3 peptide: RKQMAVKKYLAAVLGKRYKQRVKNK
Experimental: (§2) The binding epitopes of anti-PACAP antibodies were evaluated by using the Biacore 3000 biosensor-based instrument (GE Healthcare USA). The Biacore 3000 instrument utilizes surface plasmon resonance (SPR) technology to measure mass increase on the sensor-chip surface. The binding interactions are measured in real-time and recorded as Response Units (RU). Each binding profile (cycle) is stored in a “sensorgram” in real-time. Generally, Biacore technology entails immobilizing a ligand of interest on to a flow-cell of the sensor-chip via a coupling chemistry. The analyte (e.g. putative binding partner to the ligand of interest) is injected across the immobilized ligand allowing it to bind to the ligand-immobilized surface. The magnitude of the response is directly proportional to the mass increase on the immobilized surface due to the binding of the analyte.
(§3) In this experiment, various peptide fragments of PACAP38 were incubated with each of the six antibodies (mAb1, mAb2, mAb3, mAb4, mAb5, and mAb6) described in Example 2 and evaluated for their ability to inhibit binding of the antibodies to full-length PACAP38 immobilized on the sensor-chip. The binding epitopes for each of the antibodies were deduced from the set of peptides that were able to inhibit the binding of each antibody to full-length PACAP38.
(§4) Each of the six anti-PACAP antibodies was incubated at a 1:200 molar ratio (Ab: peptide fragment) with each of the peptide fragments in Table 9 at an ambient temperature for 2 hours prior to analysis. […] A second control containing 6.5 nM antibody was prepared in sample diluent to be used as the untreated control sample for each antibody. Full-length PACAP38, buffer, and each peptide fragment were also tested to evaluate non-specific binding to the immobilized PACAP38 surface.

[4] = target: T4, PACAP38 peptide fragment 6-37 (human); experiment: as above
T4 construct: also called peptide No. 3
T4 peptide: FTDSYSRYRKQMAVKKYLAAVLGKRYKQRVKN
Experimental: as §2, §3, §4

[5] = target: T5, PACAP38 peptide fragment 6-38 (human, not fully specified); experiment: as above
T5 construct: also called peptide No. 11
T5 peptide: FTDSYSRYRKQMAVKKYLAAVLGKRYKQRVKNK
Experimental: as §2, §3, §4

[6] = target: T6, human PACAP27 (human, not fully specified); experiment: cell-based or functional assay
T6 peptide: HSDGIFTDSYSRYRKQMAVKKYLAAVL

[7] = target: T7, vasoactive intestinal peptide (VIP) (human); experiment: ELISA screen of B-cell culture supernatant; VIP at 100 ng/mL
T7 construct: also called human VIP
T7 peptide: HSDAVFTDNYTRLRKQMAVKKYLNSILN

[8] = target: T8, amino terminal PACAP38 peptide (amino acids 1-13) (human); experiment: ELISA screen of B-cell culture supernatant; N-terminal peptide at 500 ng/mL; ELISA screen of B-cell culture supernatant (Example 1); N-terminal peptide 500 ng/mL; optical density
T8 construct: also called N-terminal Peptide; N-terminal PACAP peptide
T8 peptide: HSDGIFTDSYSRY
Source text: as §1

[9] = target: T2, full-length human PACAP38; experiment: cell-based or functional assay
[10] = target: T1, carboxy terminal PACAP38 peptide (amino …); experiment: ELISA screen of B-cell culture supernatant; C-terminal peptide at 500 ng/mL
Source text: as §1

[11] = target: T9, 31-38 (ends and bridges not checked); experiment: SPR (Biacore 3000), solution competition with the peptide for antibody binding to immobilised full-length PACAP38; % inhibition
T9 construct: also called PACAP38 peptide fragment 31-38; peptide No. 5
T9 peptide: YKQRVKNK
Experimental: as §2, §3, §4

[12] = target: T10, 30-37; experiment: as above
T10 construct: also called PACAP38 peptide fragment 30-37; peptide No. 19
T10 peptide: RYKQRVKN
Experimental: as §2, §3, §4

[13] = target: T11, PACAP38 peptide fragment 6-20 (human); experiment: as above
T11 construct: also called peptide No. 13
T11 peptide: FTDSYSRYRKQMAVK
Experimental: as §2, §3, §4

[14] = target: T12, PACAP38 peptide fragment 34-38 (human, ends and bridges not checked); experiment: as above
T12 construct: also called peptide No. 17; RVKNK
T12 peptide: RVKNK
Experimental: as §2, §3, §4

[15] = target: T7, vasoactive intestinal peptide (VIP); experiment: ELISA screen of B-cell culture supernatant

binding result [1]: no binding (tested: 500 ng/mL)
Optical Density [2]: 3.55 OD
binding result [3]: binds
binding result [4]: binds
binding result [5]: binds
IC50: inhibition of PACAP27 (10 pM)-induced activation of human PAC1 receptor, cAMP assay in SH-SY5Y (CRL-2266) cells, POC versus antibody concentration [6]: 0.5 nM
Optical Density [7]: 0.95 OD
Optical Density [8]: 4.24 OD
IC50: inhibition of PACAP38 (10 pM)-induced activation of human PAC1 receptor, cAMP assay in SH-SY5Y (CRL-2266) cells, POC versus antibody concentration [9]: 0.6 nM
Optical Density [10]: 0.05 OD
B1: mAb6 (antibody, V domains shown)
VH: QLEESGGGLVQPGASLTLTCTTSGFSLSDNYLCWVRQAPGRGLEWVACIGIVLRSTGATYYASWAEGRFTISKTSPTTVTLEMTSLTAADTATYFCALDLGYGGPLWGPGTLVTVSS
VL: AQVLTQTPASVSAAVGGTVTINCQASQSVYNNKNLAWYQQKPGQPPKLLIYFSSTLASGVPSRFRGSGSGTQFTLTISGVQCGDAATYYCLGEFGSIWAFGGGTEVVVKG
notes: Rabbit monoclonal antibody (SLAM), recombinant; also called monoclonal anti-PACAP antibody 6; 6 (c55)
binding result [11]: no binding (tested: 1:200 molar ratio (Ab:peptide))
binding result [12]: no binding (tested: 1:200 molar ratio (Ab:peptide))
binding result [13]: no binding (tested: 1:200 molar ratio (Ab:peptide))
binding result [14]: no binding (tested: 1:200 molar ratio (Ab:peptide))

binding result [15]: no binding (tested: 100 ng/mL)
Optical Density [2]: 3.39 OD
binding result [3]: binds
binding result [4]: binds
binding result [5]: binds
IC50: inhibition of PACAP27 (10 pM)-induced activation of human PAC1 receptor, cAMP assay in SH-SY5Y (CRL-2266) cells, POC versus antibody concentration [6]: > 1 uM
Optical Density [7]: 0.09 OD
IC50: inhibition of PACAP38 (10 pM)-induced activation of human PAC1 receptor, cAMP assay in SH-SY5Y (CRL-2266) cells, POC versus antibody concentration [9]: 0.4 nM
Optical Density [10]: 3.74 OD
B2: mAb2 (antibody, V domains shown)
VH: QSLEESGGGLVQPEGSLTLTCTASGFSFNSSSYMCWVRQAPGKGLEWIGCIFTGSSGNTYYATWAQGRFTISKTSTTVTLEMTSLTAADTATYFCARDRAYFLVGYFYATYYFDLWGPGTLVTVSS
VL: DVVMTQTPSPVSAQVGGTVTINCQASESIDSDLSWYQQKPGQPPKLLIYRTFTLESGVPSRFKGSGSGTDYTLTISDLECADAAIYYCQCTDGSSISGSYGWDAFGGGTEVVVKG
notes: Rabbit monoclonal antibody (SLAM), recombinant; also called monoclonal anti-PACAP antibody 2; 2 (c81)
binding result [13]: no binding (tested: 1:200 molar ratio (Ab:peptide))

binding result [1]: no binding (tested: 500 ng/mL)
binding result [15]: no binding (tested: 100 ng/mL)
Optical Density [2]: 3.21 OD
binding result [4]: binds
binding result [5]: binds
IC50: inhibition of PACAP27 (10 pM)-induced activation of human PAC1 receptor, cAMP assay in SH-SY5Y (CRL-2266) cells, POC versus antibody concentration [6]: 26 nM
Optical Density [7]: 0.12 OD
Optical Density [8]: 1.34 OD
IC50: inhibition of PACAP38 (10 pM)-induced activation of human PAC1 receptor, cAMP assay in SH-SY5Y (CRL-2266) cells, POC versus antibody concentration [9]: 1 nM
Optical Density [10]: 0.05 OD
B3: mAb5 (antibody, V domains shown)
VH: QSVEESGGRLVTPGTPLTLTCTVSGFSLSTYNMCWVRQAPGKGLEWVGFINSDDSAYYASWAKGRFTFSKTSTTVDLKIASPTTEDTATYFCARYDWDYYYSRLDLWGPGTLVTVSS
VL: DIVLTQTPASVSAAVGGTVSISCQSSESVYNNNYLSWFQQKPGQPPKLLIYGASTLASGVPSRFEGSGSGTQFTLTISDVQCDDAATYYCLGDYIIIENIFGGGTEVVVKG
notes: Rabbit monoclonal antibody (SLAM), recombinant; also called monoclonal anti-PACAP antibody 5; 5 (c71)
binding result [11]: no binding (tested: 1:200 molar ratio (Ab:peptide))
binding result [12]: no binding (tested: 1:200 molar ratio (Ab:peptide))
binding result [13]: no binding (tested: 1:200 molar ratio (Ab:peptide))
binding result [14]: no binding (tested: 1:200 molar ratio (Ab:peptide))
